Results on six molecules are retold here after paper PMC10578477, “Biochemical and genetic dissection of the RNA-binding surface of the FinO domain of Escherichia coli ProQ”.

Series [1] deals with T1, ProQ NTD R32A R32A (Escherichia coli) (UniProt P45577).
T1 sequence: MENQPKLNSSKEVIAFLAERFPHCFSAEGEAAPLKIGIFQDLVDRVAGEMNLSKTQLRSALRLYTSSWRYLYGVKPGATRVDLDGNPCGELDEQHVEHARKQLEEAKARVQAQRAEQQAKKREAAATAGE
Briefly: EMSA. Conditions: EMSA: 25 mM Tris pH 7.5, 150 mM NaCl, 5% glycerol, 1 mM MgCl2, 1 nM 32P-RNA, 30 min RT; microplates pretreated with 0.0025% BSA; 6% gel in 0.5x TBE at 4 C.

Series [2] concerns the target T2, ProQ NTD T65A T65A (Escherichia coli) (UniProt P45577).
T2 sequence: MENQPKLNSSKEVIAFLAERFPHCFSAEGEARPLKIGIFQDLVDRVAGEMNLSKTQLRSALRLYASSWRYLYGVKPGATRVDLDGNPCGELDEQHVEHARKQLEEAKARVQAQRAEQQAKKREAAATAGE
Briefly: EMSA. Conditions: EMSA: 25 mM Tris pH 7.5, 150 mM NaCl, 5% glycerol, 1 mM MgCl2, 1 nM 32P-RNA, 30 min RT; microplates pretreated with 0.0025% BSA; 6% gel in 0.5x TBE at 4 C. On the technique in general: Mobility shift assays separate free from complexed probe on a gel.

The target of series [3] is T3, ProQ NTD K35A K35A (Escherichia coli) (UniProt P45577).
T3 sequence: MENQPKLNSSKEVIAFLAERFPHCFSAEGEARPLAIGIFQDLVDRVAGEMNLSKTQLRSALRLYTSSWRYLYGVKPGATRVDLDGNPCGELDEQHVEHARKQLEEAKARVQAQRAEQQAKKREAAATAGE
Briefly: EMSA. The conditions noted are these: EMSA: 25 mM Tris pH 7.5, 150 mM NaCl, 5% glycerol, 1 mM MgCl2, 1 nM 32P-RNA, 30 min RT; microplates pretreated with 0.0025% BSA; 6% gel in 0.5x TBE at 4 C.

The target in series [4] is T4, ProQ NTD K54A K54A (Escherichia coli) (UniProt P45577).
T4 sequence: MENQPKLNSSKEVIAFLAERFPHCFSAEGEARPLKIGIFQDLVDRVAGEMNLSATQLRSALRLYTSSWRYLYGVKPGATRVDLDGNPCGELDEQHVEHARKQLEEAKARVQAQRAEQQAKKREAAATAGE
Briefly: EMSA. Conditions: EMSA: 25 mM Tris pH 7.5, 150 mM NaCl, 5% glycerol, 1 mM MgCl2, 1 nM 32P-RNA, 30 min RT; microplates pretreated with 0.0025% BSA; 6% gel in 0.5x TBE at 4 C.

The target of series [5] is T5, ProQ NTD Y70F Y70F (Escherichia coli) (UniProt P45577).
T5 sequence: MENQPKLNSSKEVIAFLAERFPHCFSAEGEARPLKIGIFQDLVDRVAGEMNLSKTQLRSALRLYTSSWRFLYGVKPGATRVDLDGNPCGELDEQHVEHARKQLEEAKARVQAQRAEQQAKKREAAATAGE
Briefly: EMSA. Conditions: EMSA: 25 mM Tris pH 7.5, 150 mM NaCl, 5% glycerol, 1 mM MgCl2, 1 nM 32P-RNA, 30 min RT; microplates pretreated with 0.0025% BSA; 6% gel in 0.5x TBE at 4 C.

For series [6], the target named is T6, ProQ NTD R58A R58A (Escherichia coli) (UniProt P45577).
T6 sequence: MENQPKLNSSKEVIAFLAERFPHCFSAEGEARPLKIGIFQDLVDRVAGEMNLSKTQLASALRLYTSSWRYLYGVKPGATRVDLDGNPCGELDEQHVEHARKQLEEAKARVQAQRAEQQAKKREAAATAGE
Briefly: EMSA. Conditions: EMSA: 25 mM Tris pH 7.5, 150 mM NaCl, 5% glycerol, 1 mM MgCl2, 1 nM 32P-RNA, 30 min RT; microplates pretreated with 0.0025% BSA; 6% gel in 0.5x TBE at 4 C.

For series [7], the target named is T7, ProQ NTD D41A D41A (Escherichia coli) (UniProt P45577).
T7 sequence: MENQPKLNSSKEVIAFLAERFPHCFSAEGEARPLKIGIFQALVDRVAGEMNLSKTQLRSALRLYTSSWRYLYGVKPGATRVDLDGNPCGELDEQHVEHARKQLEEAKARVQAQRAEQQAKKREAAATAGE
Briefly: EMSA. Conditions: EMSA: 25 mM Tris pH 7.5, 150 mM NaCl, 5% glycerol, 1 mM MgCl2, 1 nM 32P-RNA, 30 min RT; microplates pretreated with 0.0025% BSA; 6% gel in 0.5x TBE at 4 C.

Series [8] has as its target T8, ProQ NTD R62A R62A (Escherichia coli) (UniProt P45577).
T8 sequence: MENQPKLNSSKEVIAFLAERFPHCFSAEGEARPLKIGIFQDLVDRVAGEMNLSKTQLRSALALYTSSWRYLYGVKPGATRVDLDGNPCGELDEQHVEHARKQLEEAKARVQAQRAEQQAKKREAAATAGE
Briefly: EMSA. Conditions: EMSA: 25 mM Tris pH 7.5, 150 mM NaCl, 5% glycerol, 1 mM MgCl2, 1 nM 32P-RNA, 30 min RT; microplates pretreated with 0.0025% BSA; 6% gel in 0.5x TBE at 4 C.

Another series deals with T9, ProQ NTD R80A (Escherichia coli, UniProt P45577 1-130, R80A).
T9 sequence: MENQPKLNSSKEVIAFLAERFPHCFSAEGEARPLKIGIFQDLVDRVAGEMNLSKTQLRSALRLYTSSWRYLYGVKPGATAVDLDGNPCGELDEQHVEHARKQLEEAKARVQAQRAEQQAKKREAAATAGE
Briefly: EMSA; EMSA: 25 mM Tris pH 7.5, 150 mM NaCl, 5% glycerol, 1 mM MgCl2, 1 nM 32P-RNA, 30 min RT; microplates pretreated with 0.0025% BSA; 6% gel in 0.5x TBE at 4 C. Conditions: protein: recombinant; tags: His6-TEV removed, N-terminal Ser remains; label: 5'-32P; terminator hairpin, 8 U 3' tail.

A further series has as its target T10, ProQ NTD R80K (Escherichia coli, UniProt P45577 1-130, R80K).
T10 sequence: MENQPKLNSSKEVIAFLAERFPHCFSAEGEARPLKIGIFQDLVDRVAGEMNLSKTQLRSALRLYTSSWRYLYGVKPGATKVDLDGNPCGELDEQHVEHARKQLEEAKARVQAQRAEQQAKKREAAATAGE
The series is described as above. Conditions: protein: recombinant; tags: His6-TEV removed, N-terminal Ser remains; label: 5'-32P; terminator hairpin, 8 U 3' tail.

A further series concerns the target T11, ProQ NTD R62A (Escherichia coli, UniProt P45577 1-130, R62A).
T11 sequence: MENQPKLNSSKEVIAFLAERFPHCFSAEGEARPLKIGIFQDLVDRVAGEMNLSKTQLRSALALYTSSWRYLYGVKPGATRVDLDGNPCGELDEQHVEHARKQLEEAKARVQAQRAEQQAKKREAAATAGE
Briefly: EMSA; max fraction bound just above 40%; EMSA: 25 mM Tris pH 7.5, 150 mM NaCl, 5% glycerol, 1 mM MgCl2, 1 nM 32P-RNA, 30 min RT; microplates pretreated with 0.0025% BSA; 6% gel in 0.5x TBE at 4 C. Conditions: protein: recombinant; tags: His6-TEV removed, N-terminal Ser remains; label: 5'-32P; terminator hairpin, 8 U 3' tail.

Series [9] has as its target T12, ProQ NTD K35A (Escherichia coli, UniProt P45577 1-130, K35A).
T12 sequence: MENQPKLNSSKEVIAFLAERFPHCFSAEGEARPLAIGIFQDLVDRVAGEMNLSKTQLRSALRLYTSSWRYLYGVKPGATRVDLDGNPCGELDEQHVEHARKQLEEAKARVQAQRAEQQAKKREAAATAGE
Briefly: EMSA; max fraction bound similar to WT; EMSA: 25 mM Tris pH 7.5, 150 mM NaCl, 5% glycerol, 1 mM MgCl2, 1 nM 32P-RNA, 30 min RT; microplates pretreated with 0.0025% BSA; 6% gel in 0.5x TBE at 4 C. Conditions: protein: recombinant; tags: His6-TEV removed, N-terminal Ser remains; label: 5'-32P; terminator hairpin, 8 U 3' tail.

The target of series [10] is T13, ProQ NTD R69A (Escherichia coli, UniProt P45577 1-130, R69A).
T13 sequence: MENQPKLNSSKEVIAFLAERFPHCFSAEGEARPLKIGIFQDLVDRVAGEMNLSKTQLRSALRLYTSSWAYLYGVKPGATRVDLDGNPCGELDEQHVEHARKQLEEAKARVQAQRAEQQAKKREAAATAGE
Briefly: EMSA; max fraction bound 88%; EMSA: 25 mM Tris pH 7.5, 150 mM NaCl, 5% glycerol, 1 mM MgCl2, 1 nM 32P-RNA, 30 min RT; microplates pretreated with 0.0025% BSA; 6% gel in 0.5x TBE at 4 C. The conditions noted are these: protein: recombinant; tags: His6-TEV removed, N-terminal Ser remains; label: 5'-32P; terminator hairpin, 8 U 3' tail.

In a further series the target is T14, ProQ NTD T65A (Escherichia coli, UniProt P45577 1-130, T65A).
T14 sequence: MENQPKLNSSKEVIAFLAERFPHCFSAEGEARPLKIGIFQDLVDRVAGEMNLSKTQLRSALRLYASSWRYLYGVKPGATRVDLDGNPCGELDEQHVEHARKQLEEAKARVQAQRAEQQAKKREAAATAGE
Briefly: EMSA; EMSA: 25 mM Tris pH 7.5, 150 mM NaCl, 5% glycerol, 1 mM MgCl2, 1 nM 32P-RNA, 30 min RT; microplates pretreated with 0.0025% BSA; 6% gel in 0.5x TBE at 4 C. Conditions: protein: recombinant; tags: His6-TEV removed, N-terminal Ser remains; label: 5'-32P; terminator hairpin, 8 U 3' tail.

A further series concerns the target T15, ProQ NTD D41A (Escherichia coli, UniProt P45577 1-130, D41A).
T15 sequence: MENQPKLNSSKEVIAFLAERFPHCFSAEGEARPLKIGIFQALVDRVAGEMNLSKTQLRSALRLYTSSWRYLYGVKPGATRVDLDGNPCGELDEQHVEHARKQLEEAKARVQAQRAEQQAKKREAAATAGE
The description is as above. The conditions noted are these: protein: recombinant; tags: His6-TEV removed, N-terminal Ser remains; label: 5'-32P; terminator hairpin, 8 U 3' tail.

The target in series [11] is T12, ProQ NTD K35A. The series is described as above. The conditions noted are these: protein: recombinant; tags: His6-TEV removed, N-terminal Ser remains; label: 5'-32P; hairpin, no 5' single strand.
The target of series [12] is T13, ProQ NTD R69A. The description is as above. Conditions: protein: recombinant; tags: His6-TEV removed, N-terminal Ser remains; label: 5'-32P; hairpin, no 5' single strand.
Series [13] has as its target T12, ProQ NTD K35A. The series is described as above. Conditions: protein: recombinant, tags: His6-TEV removed, N-terminal Ser remains, label: 5'-32P.
The target in series [14] is T13, ProQ NTD R69A. Briefly: EMSA; affinity not decreased vs R69A with cspE-3'; EMSA: 25 mM Tris pH 7.5, 150 mM NaCl, 5% glycerol, 1 mM MgCl2, 1 nM 32P-RNA, 30 min RT; microplates pretreated with 0.0025% BSA; 6% gel in 0.5x TBE at 4 C. The conditions noted are these: protein: recombinant; tags: His6-TEV removed, N-terminal Ser remains; label: 5'-32P; hairpin with 5' and 3' single-stranded regions.

In series [15] the target is T13, ProQ NTD R69A. Briefly: EMSA; EMSA: 25 mM Tris pH 7.5, 150 mM NaCl, 5% glycerol, 1 mM MgCl2, 1 nM 32P-RNA, 30 min RT; microplates pretreated with 0.0025% BSA; 6% gel in 0.5x TBE at 4 C. The conditions noted are these: protein: recombinant; tags: His6-TEV removed, N-terminal Ser remains; label: 5'-32P; hairpin, 6 U tail (2 predicted single-stranded).

malM-3': the binding signal (fold weaker Kd than WT) in [1] came to 1; in [2], 2; in series [7] it was 3. Also, the binding signal in series [3] is 70 % max bound; in series [4], 30 % max bound; in [5] it was < 20 % max bound; in [8], 25 % max bound. Moreover, the dissociation constant Kd (as a rule, the equilibrium constant for the complex coming apart) in [6] was > 1000 nM.

As for cspE81-3', the binding signal (fold weaker Kd than WT) in series [2] and in series [7] was 2 throughout. Also, the binding signal in series [4] was 30 % max bound; in series [5] it was < 20 % max bound; in [8] it was < 20 % max bound. Besides, the Kd in [6] is > 1000 nM.

B1: cspE-3' (structured_RNA)
RNA: GUAAGAUACGUCAGCAAGAAUUCAAAACCCGCUUAAUCAGCGGGUUUUUUUU
With B1, the binding result with ProQ NTD R80A was “no binding”; with ProQ NTD R80K, “no binding”; with ProQ NTD K35A [9], “binds”. Also, the figures for the binding signal with ProQ NTD R62A, with ProQ NTD T65A and with ProQ NTD D41A were ~4 fold weaker Kd than WT, ~4 fold weaker Kd than WT and ~3 fold weaker Kd than WT, respectively. For the same molecule, the dissociation constant Kd with ProQ NTD R69A [10] came out at 20 nM.

B2: cspE-mini-5'-blunt (structured_RNA)
RNA: GGAAGGCGCUUAAUCAGCGCCUUUUUUUU
For the molecule B2, the binding result with ProQ NTD K35A [11] and in the series with ProQ NTD R69A [12] was “no binding” throughout.

B3: cspE-mini (structured_RNA)
RNA: GGAAUUCGGAAGGCGCUUAAUCAGCGCCUUUUUUUU
Turning to B3, the binding signal with ProQ NTD K35A [13] (hairpin with 5' and 3' single-stranded regions) is ~2 fold weaker Kd than K35A with cspE-3'. For the same molecule, the binding result with ProQ NTD R69A [14] is “binds”.

B4: cspE-mini-3'-6U (structured_RNA)
RNA: GGAAUUCGGAAGGCGCUUAAUCAGCGCCUUUUUU
Regarding B4, the binding signal in the series with ProQ NTD K35A [13] (hairpin, 6 U tail (2 predicted single-stranded)) was ~1.4 fold weaker Kd than K35A with cspE-mini; in the series with ProQ NTD R69A [15], ~2.4 fold weaker Kd than R69A with cspE-mini.
